# In US6570069B1, “Nucleic acids encoding plant inhibitors of apoptosis and transgenic cells and plants expressing them” (priority 2000, dated 2003):
# Entries after “also recorded” stand apart in the source; their conditions may differ.
# T1: CpIAP (Cydia pomonella granulosis virus, UniProt P41436)
# T1 construct: The complete ORF of CpIAP was subcloned into the EcoRI-EcoRV sites of pcDNA3-myc or the EcoRI-SalI sites in pGEX4T-1; GST (N); made in house; host or cells: E. coli BL21 (DE3) containing pT-Trx
# T1 sequence (P41436 1-275): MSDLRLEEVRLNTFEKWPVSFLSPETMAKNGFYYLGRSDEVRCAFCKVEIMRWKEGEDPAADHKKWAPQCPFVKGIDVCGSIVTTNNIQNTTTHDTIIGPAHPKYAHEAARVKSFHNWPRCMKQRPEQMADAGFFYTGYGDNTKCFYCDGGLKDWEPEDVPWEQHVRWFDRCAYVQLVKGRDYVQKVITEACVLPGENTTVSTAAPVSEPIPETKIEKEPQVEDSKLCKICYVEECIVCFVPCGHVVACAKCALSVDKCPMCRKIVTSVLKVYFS
# T2: recombinant purified caspase-7 (mammalian, UniProt P55210 24-303)
# T2 construct: also called caspases-7
# T2 sequence: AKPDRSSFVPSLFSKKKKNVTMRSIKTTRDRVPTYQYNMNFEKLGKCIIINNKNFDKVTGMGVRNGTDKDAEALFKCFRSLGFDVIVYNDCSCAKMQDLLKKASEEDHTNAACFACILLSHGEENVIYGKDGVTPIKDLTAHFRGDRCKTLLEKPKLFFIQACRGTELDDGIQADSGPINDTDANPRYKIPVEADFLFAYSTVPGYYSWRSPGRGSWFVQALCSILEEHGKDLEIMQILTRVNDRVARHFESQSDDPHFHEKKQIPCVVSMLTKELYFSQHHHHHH
# T3: [35S]pro-caspase-9 (mammalian, UniProt P55211 1-416, limits assumed)
# T3 construct: also called in vitro-translated pro-caspase-9
# T3 sequence (looked up): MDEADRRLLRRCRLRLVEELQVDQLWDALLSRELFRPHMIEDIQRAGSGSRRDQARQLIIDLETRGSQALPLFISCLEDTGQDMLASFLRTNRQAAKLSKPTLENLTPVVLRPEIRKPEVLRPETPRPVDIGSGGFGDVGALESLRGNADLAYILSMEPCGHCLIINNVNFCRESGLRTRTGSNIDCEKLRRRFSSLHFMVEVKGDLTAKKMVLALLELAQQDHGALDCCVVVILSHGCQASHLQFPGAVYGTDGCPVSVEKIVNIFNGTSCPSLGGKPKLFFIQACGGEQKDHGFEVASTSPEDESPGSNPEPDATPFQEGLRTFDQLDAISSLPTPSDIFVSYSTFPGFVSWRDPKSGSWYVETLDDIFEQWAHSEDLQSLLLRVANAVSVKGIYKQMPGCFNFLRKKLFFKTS
# T4: pro-caspase-9 (Homo sapiens, UniProt P55211)
# T4 construct: host or cells: cell-free in vitro transcription/translation
# T4 sequence (P55211 1-416): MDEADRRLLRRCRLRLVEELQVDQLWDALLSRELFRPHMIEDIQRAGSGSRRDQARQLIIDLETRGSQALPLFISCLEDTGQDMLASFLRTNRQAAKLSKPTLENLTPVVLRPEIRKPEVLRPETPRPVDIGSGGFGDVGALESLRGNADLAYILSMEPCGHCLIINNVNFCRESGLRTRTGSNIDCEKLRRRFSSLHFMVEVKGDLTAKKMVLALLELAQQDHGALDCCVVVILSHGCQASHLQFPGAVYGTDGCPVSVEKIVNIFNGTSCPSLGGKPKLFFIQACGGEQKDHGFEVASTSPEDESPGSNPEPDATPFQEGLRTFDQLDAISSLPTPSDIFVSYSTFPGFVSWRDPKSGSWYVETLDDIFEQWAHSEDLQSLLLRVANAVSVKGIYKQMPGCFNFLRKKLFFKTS
# B1: recombinant purified caspase-3 (enzyme, mammalian)
# chain: SGISLDNSYKMDYPEMGLCIIINNKNFHKSTGMTSRSGTDVDAANLRETFRNLKYEVRNKNDLTREEIVELMRDVSKEDHSKRSSFVCVLLSHGEEGIIFGTNGPVDLKKITNFFRGDRCRSLTGKPKLFIIQACRGTELDCGIETDSGVDDDMACHKIPVEADFLYAYSTAPGYYSWRNSKDGSWFIQSLCAMLKQYADKLEFMHILTRVNRKVATEFESFSFDATFHAKKQIPCIVSMLTKELYFYHHHHHHH
# notes: also called caspases-3
# B2: GST-CpIAP (other)
# chain: MSDLRLEEVRLNTFEKWPVSFLSPETMAKNGFYYLGRSDEVRCAFCKVEIMRWKEGEDPAADHKKWAPQCPFVKGIDVCGSIVTTNNIQNTTTHDTIIGPAHPKYAHEAARVKSFHNWPRCMKQRPEQMADAGFFYTGYGDNTKCFYCDGGLKDWEPEDVPWEQHVRWFDRCAYVQLVKGRDYVQKVITEACVLPGENTTVSTAAPVSEPIPETKIEKEPQVEDSKLCKICYVEECIVCFVPCGHVVACAKCALSVDKCPMCRKIVTSVLKVYFS
# notes: range 1-275
# How the values were obtained:
# [1] = biological target: GST-SfIAP (Spodoptera frugiperda); assay: cell-based or functional assay
# [2] = biological target: T1, CpIAP; assay: Grim peptide effect on CpIAP inhibition of mammalian caspases in vitro; assay type: biochemical, baculovirus
# [3] = tested on: SfIAP; assay: Grim peptide effect on SfIAP-mediated suppression of caspases in cyto c-stimulated cell extracts; assay type: biochemical, Spodoptera frugiperda; settings: cyto c-stimulated cytosol extracts
# Experimental: (§1) Caspase activity was assayed by release of 7-amino-4-trifluoromethyl-coumarin (AFC) from Ac-DEVD or Ac-LEHD-containing synthetic peptides (Calbiochem) using continuous-reading instuments as described (Quan, L. T. et al., (1995) J. Biol. Chem. 270:10377-10379).
# (§2) Cytosolic extracts were prepared as described (Deveraux, Q., Takahashi, R., Salvesen, G. S. & Reed, J. C. (1997) Nature 388, 300-303) using human embryonic kidney (HEK) 293 cells. Cells were washed with ice-cold buffer A (20 mM HEPES pH 7.5, 10 mM KCl, 1.5 mM MgCl2, 1 mM EDTA and 1 mM DTT), suspended in 1 volume of buffer A, incubated on ice for 20 mins, and then disrupted by 15 passages through a 26-gauge needle. Cell extracts were purified by centrifugation at 15000 g for 12 mins and supernatants were stored at −80 ° C. For initiating caspase activation, either 100 nM of purified recombinant caspase-8 or 1 μM horse heart cytochrome c (Sigma) together with 1 mM dATP was added to extracts (Deveraux, Q. L., et al., (1998) EMBO J. 17, 2215-2223).
# It has been proposed that Drosophila apoptosis-inducers such as Grim function as negative regulators of IAPs (Deveraux, Q. & Reed, J. C. (1998) Genes Dev. 13, 239-252; Wang, S. et al. (1999) Cell 98, 453-463). […]
# [4] = biological target: recombinant active caspase-9 (caspase-9 lacking the CARD domain) (mammalian), P55211; assay: cell-based or functional assay
# [5] = biological target: T2, recombinant purified caspase-7; assay: in vitro binding with recombinant purified caspase; method not described
# [6] = biological target: B1; assay: as above
# [7] = biological target: B2; assay: as above
# [8] = biological target: T3, [35S]pro-caspase-9; assay: GST pull-down of in vitro-translated [35S]pro-caspase-9 on glutathione-Sepharose, SDS-PAGE and autoradiography
# [9] = biological target: T4, pro-caspase-9; assay: GST pull-down binding of [35S]-pro-caspase-9; design: species or system mammalian; settings: GST fusion protein on glutathione-Sepharose
# Experimental: [^35S]Pro-caspase-9 was in vitro transcribed and translated in the presence of [^35S]L-methionine using TNT kit from Promega. Protein were desalted and exchanged into buffer (20 mM HEPES pH 7.5, 10 mM KCl, 1.5 mM MgCl2, 1 mM EDTA and 1 mM DTT) with Bio-spin P-6 columns (Bio-Rad). […] After incubation at 4 ° C. for 1 hour, beads were removed by centrifugation and washed twice with 0.5 ml of 50 mM Tris (pH 7.5), 150 mM NaCl, 2 mm DTT before analysis by SDS-PAGE and autoradiography.
# [10] = tested on: caspase-3 and similar DEVD-cleaving proteases in cell extracts treated with cyto c; assay: Cell-free caspase activation induced by cyto c in HEK 293 cytosolic extracts; assay type: biochemical, human; settings: recombinant protein, cell extracts treated with cyto c
# Experimental: as §1, §2
# To further explore the mechanisms by which SfIAP and CpIAP inhibit mammalian apoptosis, a cell-free system in which exogenously added active caspase-8 or cyto c induces activation of caspase-3 and similar proteases, as measured by hydrolysis of Ac-DEVD-AFC (Quan, L. T. et al., (1995) J. Biol. Chem. 270, 10377-10379) was used. Caspase-8 and cyto c trigger the same apoptosis pathways in extracts which are activated by Fas and Bax in intact cells.
molecule,measurement,setting,value
"Grim peptide (IAP-binding domain of Grim, first 18 amino acids) (from UniProt Q24570 1-18)",restoration of DEVD-cleaving caspase activity in cyto c-stimulated cell extracts suppressed by SfIAP,[1],5 fold excess
"Grim peptide: peptide corresponding to the IAP-binding domain of Grim (first 18 amino acid of Grim) (MAIAYFIPDQAQLLARSY; UniProt Q24570 1-18, looked up, fragment)",effect on ability of CpIAP to inhibit mammalian caspases,[2],negate the ability of SfIAP and CpIAP to inhibit mammalian caspases
same,effect on SfIAP inhibition of cyto c-induced activation of DEVD-cleaving caspases,[3],abrogated this inhibitory effect of SfIAP in a concentration-dependent manner; also recorded: negate the ability of SfIAP and CpIAP to inhibit mammalian caspases
same,excess of peptide relative to SfIAP resulting in complete restoration of caspase activity,[3],5 fold
"GST-SfIAP (other, not shown: a dimerising Fc or GST, also called recombinant SfIAP; recombinant-purified SfIAP) MWSCSLPCWNTKKSGLQMDITKVASNGSSSTLTLFKSGSLEAKIRPLAPLMLPTPSYDSNAGSPSLSPSTPCSSSSFSIDKTDNHDTFGFSADTVDMRKEDERMKTFEKWPVSFLSGEQLARNGFYYLGRRDEARCAFCKVEIMRWVEGDDPAKDHQRWAPQCPFVRKLNGTAAADTGSSGQDECGARAAPSGTSPPRMAGPVHPRYASEAARLRSFKDWPRCMRQKPEELAEAGFFYTGQGDKTKCFYCDGGLKDWENHDVPWEQHARWFDRCAYVQLVKGREYVQKVISEACEVSASEAERDVAPARTAEPSPPAEAPENSVDDSKLCKICYAEERNVCFVPCGHVVACAKCALAADKCPMCRRTFQNAVRLYFS",molar-excess relative to caspase-9 which produced ~50% inhibition of protease activity (Ac-LEHD-AFC substrate) (fold molar excess),[4],8
same,binding result,[5],no binding
same,binding result,[6],no binding
B1,binding result,[7],no binding
B2,binding result,[5],no binding
"GST-XIAP-BIR1 (other, human, UniProt P98170 1-123, looked up, not shown: a dimerising Fc or GST, domain: BIR1; also called BIR1 domain of XIAP) MTFNSFEGSKTCVPADINKEEEFVEEFNRLKTFANFPSGSPVSASTLARAGFLYTGEGDTVRCFSCHAAVDRWQYGDSAVGRHRKVSPNCRFINGFYLENSATQSTNSGIQNGQYKVENYLGS",binding result,[8],no binding
"XIAP-BIR1: control protein consisting of the BIR1 domain of XIAP (protein, left off: a dimerising Fc or GST) MTFNSFEGSKTCVPADINKEEEFVEEFNRLKTFANFPSGSPVSASTLARAGFLYTGEGDTVRCFSCHAAVDRWQYGDSAVGRHRKVSPNCRFINGFYLENSATQSTNSGIQNGQYKVENYLGS",binding to pro-caspase-9 (autoradiography),[9],failed to bind caspase-9
same,effect on hydrolysis of Ac-DEVD-AFC (caspase activity),[10],did not interfere with caspase activity
